# Experimental data as given in publication PMC4873337.
# B1: TOP probe (dsDNA)
# DNA 1: GATCTAGGGCACCCTTTGAAGCTCT
# DNA 2: AGAGCTTCAAAGGGTGCCCTAGATC
# Target: WT p45 Tcf1 (UniProt Q00417 1-419)
# Assay: EMSA
# Sequence of WT p45 Tcf1 (Q00417 whole entry): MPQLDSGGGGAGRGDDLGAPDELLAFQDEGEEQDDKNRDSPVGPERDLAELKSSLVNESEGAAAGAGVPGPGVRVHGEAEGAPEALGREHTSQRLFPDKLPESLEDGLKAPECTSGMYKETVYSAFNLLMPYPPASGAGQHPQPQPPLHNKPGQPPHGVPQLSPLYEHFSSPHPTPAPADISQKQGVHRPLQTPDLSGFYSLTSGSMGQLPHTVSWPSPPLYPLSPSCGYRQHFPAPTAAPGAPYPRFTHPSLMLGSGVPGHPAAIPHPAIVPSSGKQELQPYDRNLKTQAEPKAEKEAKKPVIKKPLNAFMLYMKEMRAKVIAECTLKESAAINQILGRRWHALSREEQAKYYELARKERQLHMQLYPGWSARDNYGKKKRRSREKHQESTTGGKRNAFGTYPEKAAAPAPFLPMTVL
binder,measurement,value
B1,binding result,binds
